Read-outs that look alike come from different tables or passages of the source.
T1: Mss116 core (Ser73-Tyr597) (Saccharomyces cerevisiae, UniProt P15424 73-597)
T1 sequence: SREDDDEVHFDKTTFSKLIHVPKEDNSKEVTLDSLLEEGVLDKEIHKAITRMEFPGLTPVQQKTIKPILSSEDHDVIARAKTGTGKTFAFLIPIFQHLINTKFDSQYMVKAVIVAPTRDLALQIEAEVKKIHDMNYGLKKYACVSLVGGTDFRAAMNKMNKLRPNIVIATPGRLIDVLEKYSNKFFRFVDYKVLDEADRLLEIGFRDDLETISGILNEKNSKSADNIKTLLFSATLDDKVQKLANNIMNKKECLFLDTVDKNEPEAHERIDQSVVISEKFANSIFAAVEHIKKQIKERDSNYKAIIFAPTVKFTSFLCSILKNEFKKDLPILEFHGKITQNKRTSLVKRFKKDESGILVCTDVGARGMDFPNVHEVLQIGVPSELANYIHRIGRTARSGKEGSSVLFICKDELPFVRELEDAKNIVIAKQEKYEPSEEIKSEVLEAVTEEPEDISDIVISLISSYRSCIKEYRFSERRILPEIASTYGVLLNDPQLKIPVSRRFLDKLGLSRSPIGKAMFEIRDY

B1: Mss116 (truncated construct, Ser73 - Tyr597) (domain or fragment, Saccharomyces cerevisiae, UniProt P15424 73-597, looked up)
chain: T1 sequence

Legend:
[1] = molecular target: the molecule itself; experiment: fluorescence correlation spectroscopy
[2] = molecular target: T1, Mss116 core (Ser73-Tyr597); experiment: FCS
[3] = molecular target: T1, Mss116 core (Ser73-Tyr597); experiment: FCS; remark: listed apart in the source

Binder	binding result [1]	Kd [2] [µM]	Kd [3] [µM]
B1	binds	–	–
GCCUCGCUGCCCUUCGGGGCAGCGAGGC (structured_RNA) [28-mer hairpin RNA]	–	0.117 ± 0.021	0.122 ± 0.022
